Data set [1] relates to T1, Akt 1 substrate, SEQ ID NO: 59 (ARPRAFSVGK), modified with 7-hydroxycoumarin and 5-FAM.
T1 sequence: ARPRAFSVGK

The target in data set [2] is Abl 1 substrate, SEQ ID NO: 3 (…), modified with 7-hydroxycoumarin and 5-FAM. Put plainly: cell-based or functional assay.
The subject of data set [3] is T2, SEQ ID NO: 103 (GDQDYLS*LDK), labelled phosphopeptide.
T2 sequence: GDQDYLSLDK

Data set [4] deals with T3, SEQ ID NO: 109 (ARPRAFS*VGK), labelled phosphopeptide.
T3 sequence: ARPRAFSVGK

In data set [5] the test system is T4, SEQ ID NO: 110 (RRRQFS*LRRKAK), labelled phosphopeptide.
T4 sequence: RRRQFSLRRKAK

Data set [6] relates to T5, SEQ ID NO: 113 (RPRTFSS*LAEGK), labelled phosphopeptide.
T5 sequence: RPRTFSSLAEGK

The subject of data set [7] is T6, SEQ ID NO: 100 (RGGLFS*TTPGGTK), labelled phosphopeptide.
T6 sequence: RGGLFSTTPGGTK

Data set [8] has as its system T7, SEQ ID NO: 47 (ALRRFSLGEK), modified as described.
T7 sequence: ALRRFSLGEK

The target in data set [9] is Akt 1 substrate, SEQ ID NO: 59 (…), modified with 7-hydroxycoumarin and 5-FAM. As to the kind of experiment: cell-based or functional assay.
Data set [10] deals with T8, SEQ ID NO: 31 (EEEIY*GVIEK), labelled phosphopeptide.
T8 chain: EEEIYGVIEK

With Akt 1 kinase, in data set [1], the % Phosphorylation at 5.0 ng Akt 1 kinase per well was found to be 8%, the % Phosphorylation at 10.0 ng Akt 1 kinase per well came to 12%, the % Phosphorylation at 25.0 ng Akt 1 kinase per well came to 20% and the % Phosphorylation at 37.5 ng Akt 1 kinase per well worked out at 28%. In [1], this molecule came in with a % Phosphorylation at 42.0 ng Akt 1 kinase per well of 30%, a % Phosphorylation at 50.0 ng Akt 1 kinase per well of 33%, a % Phosphorylation at 75.0 ng Akt 1 kinase per well of 38% and a % Phosphorylation at 100.0 ng Akt 1 kinase per well of 43%. In data set [1], the % Phosphorylation at 150.0 ng Akt 1 kinase per well amounted to 50%.
In [2], “Abl 1 kinase (from UniProt P00519 1-1130) (enzyme)” gave a % of substrate phosphorylated in the 0% inhibition control (1.5 ng Abl 1/well, 10 µM ATP) of 30%.
As for PP2A, the “phosphatase substrate screen (dephosphorylation, FRET/chymotrypsin read-out)” value was “SEQ ID NOs: 103, 109, 110, and 113 were substrates of PP2A” in data set [3]; “SEQ ID NOs: 103, 109, 110, and 113 were substrates of PP2A” in data set [4]; “SEQ ID NOs: 103, 109, 110, and 113 were substrates of PP2A” in data set [5]; “SEQ ID NOs: 103, 109, 110, and 113 were substrates of PP2A” in data set [6].
For the molecule PP2B, the “phosphatase substrate screen (dephosphorylation, FRET/chymotrypsin read-out)” value in [7] was “SEQ ID NOs: 100 and 110 were substrates of PP2B”; in data set [5] it was “SEQ ID NOs: 100 and 110 were substrates of PP2B”.
For PP2C, the “phosphatase substrate screen (dephosphorylation, FRET/chymotrypsin read-out)” value in data set [7] was “SEQ ID NOs: 100, 109, and 110 were substrates of PP2C”; in data set [4] it was “SEQ ID NOs: 100, 109, and 110 were substrates of PP2C”; in data set [5] it was “SEQ ID NOs: 100, 109, and 110 were substrates of PP2C”.
As for PKA, in data set [8], the “% phosphorylation by PKA (kinase titration, FRET/chymotrypsin read-out)” value is listed as “SEQ ID NO: 47 modified as described, is the best substrate for the kinase because it yielded maximal phosphorylation even at low kinase concentrations”.
In data set [9], “Akt 1 kinase (from UniProt P31749 1-480) (enzyme)” registered a % of substrate phosphorylated in the 0% inhibition control (42 ng Akt 1/well, 10.5 µM ATP) of 30%.

B1: LAR (protein)
chain: KRKRTHSPSSKDEQSIGLKDSLLAHSSDPVEMRRLNYQTPGMRDHPPIPITDLADNIERLKANDGLKFSQEYESIDPGQQFTWENSNLEVNKPKNRYANVIAYDHSRVILTSIDGVPGSDYINANYIDGYRKQNAYIATQGPLPETMGDFWRMVWEQRTATVVMMTRLEEKSRVKCDQYWPARGTETCGLIQVTLLDTVELATYTVRTFALHKSGSSEKRELRQFQFMAWPDHGVPEYPTPILAFLRRVKACNPLDAGPMVVHCSAGVGRTGCFIVIDAMLERMKHEKTVDIYGHVTCMRSQRNYMVQTEDQYVFIHEALLEAATCGHTEVPARNLYAH
With B1, the “phosphatase substrate screen (dephosphorylation, FRET/chymotrypsin read-out)” value in [10] is “SEQ ID NO: 31 was a substrate for both PTP1B and LAR”.

B2: PTP1B (protein)
chain: MEMEKEFEQIDKSGSWAAIYQDIRHEASDFPCRVAKLPKNKNRNRYRDVSPFDHSRIKLHQEDNDYINASLIKMEEAQRSYILTQGPLPNTCGHFWEMVWEQKSRGVVMLNRVMEKGSLKCAQYWPQKEEKEMIFEDTNLKLTLISEDIKSYYTVRQLELENLTTQETREILHFHYTTWPDFGVPESPASFLNFLFKVRESGSLSPEHGPVVVHCSAGIGRSGTFCLADTCLLLMDKRKDPSSVDIKKVLLEMRKFRMGLIQTADQLRFSYLAVIEGAKFIMGDSSVQDQWKELSHEDLEPPPEHIPPPPRPPKRILEPHN
For B2, the “phosphatase substrate screen (dephosphorylation, FRET/chymotrypsin read-out)” value in data set [10] was “SEQ ID NO: 31 was a substrate for both PTP1B and LAR”.
